Measurements published in PMC1888804 (Nucleic Acids Research, 2007).
Residue numbers refer to the chain shown, from its start. Names and notes keep the numbering of the source. Read-outs that look alike come from different tables or passages of the source.

B1: τCpep32 (synthetic 32-mer peptide of the C-terminus of τ) (peptide, UniProt P06710 612-643, looked up)
peptide: AQARESIIADNNIQTLRRFFDAELDEESIRPI
B2: τC14 (folded core of Domain V of τ, residues 499–625) (domain or fragment, E. coli)
chain: MKALEHEKTPELAAKLAAEAIERDPWAAQVSQLSLPKLVEQVALNAWKEESDNAVCLHLRSSQRHLNNRGAQQKLAEALSMLKGSTVELTIVEDDNPAVRTPLEWRQAIYEEKLAQARESIIADNNIQ
B3: bio-τC14 (biotinylated τC14) (domain or fragment, E. coli)
chain: B2 chain
modifications: biotinylated on the N-terminal biotin-tag
B4: τC16Δ11 (τC16 with a C-terminal deletion of 11 residues) (domain or fragment, E. coli)
chain: MKALEHEKTPELAAKLAAEAIERDPWAAQVSQLSLPKLVEQVALNAWKEESDNAVCLHLRSSQRHLNNRGAQQKLAEALSMLKGSTVELTIVEDDNPAVRTPLEWRQAIYEEKLAQARESIIADNNIQTLRRFFD
B5: τC16 (Domain V of the τ subunit of E. coli DNA polymerase III holoenzyme, residues 499–643) (domain or fragment)
chain: MKALEHEKTPELAAKLAAEAIERDPWAAQVSQLSLPKLVEQVALNAWKEESDNAVCLHLRSSQRHLNNRGAQQKLAEALSMLKGSTVELTIVEDDNPAVRTPLEWRQAIYEEKLAQARESIIADNNIQTLRRFFDAELDEESIRPI
B6: bio-τC16 (N-terminally biotinylated τC16) (domain or fragment, E. coli)
chain: B5 chain
modifications: biotinylated on the N-terminal biotin-tag
B7: τC16[I618T] (domain or fragment, E. coli)
chain: B5 chain with I121T
B8: τC16[S617P] (domain or fragment, E. coli)
chain: B5 chain with S120P
B9: τC16[L627P] (domain or fragment, E. coli)
chain: B5 chain with L130P
B10: τC16[D636G] (domain or fragment, E. coli)
chain: B5 chain with D139G
B11: τC16[L635P] (domain or fragment, E. coli)
chain: B5 chain with L138P
B12: τC16[F631I] (domain or fragment, E. coli)
chain: B5 chain with F134I

Legend:
Test in all cases: SPR
[1] = molecular target: α subunit of Escherichia coli DNA polymerase III holoenzyme (E. coli) (UniProt P10443)
[2] = molecular target: T1, α subunit of Escherichia coli DNA polymerase III holoenzyme (E. coli, UniProt P10443 1-1160)
[3] = molecular target: T1, α subunit of Escherichia coli DNA …; remark: listed apart in the source
[4] = molecular target: T1, α subunit of Escherichia coli DNA …; remark: listed apart in the source

Molecule	Kd [2] [nM]	further results
τC16Δ7 (τC16 with a C-terminal deletion of seven residues) (from UniProt P06710 499-636) (domain or fragment)		Kd [1]: 6700 nM
B1	3800	
B2	> 10000	
B3		Kd [3]: > 1000 nM
B4	> 10000	
B5	0.13	
B6		Kd [4]: 0.264 nM; Kd [3]: 0.265 nM; koff [3]: 0.000402 s⁻¹; kon [3]: 1.52e+06 M⁻¹ s⁻¹
B7	0.98	
B8	160	
B9	1500	
B10	3.8	
B11	2.4	
B12	99	
